T1: G9a and GLP (Homo sapiens, UniProt Q96KQ7+Q9H9B1)
T1 sequence (Q96KQ7 2-1210 limits assumed): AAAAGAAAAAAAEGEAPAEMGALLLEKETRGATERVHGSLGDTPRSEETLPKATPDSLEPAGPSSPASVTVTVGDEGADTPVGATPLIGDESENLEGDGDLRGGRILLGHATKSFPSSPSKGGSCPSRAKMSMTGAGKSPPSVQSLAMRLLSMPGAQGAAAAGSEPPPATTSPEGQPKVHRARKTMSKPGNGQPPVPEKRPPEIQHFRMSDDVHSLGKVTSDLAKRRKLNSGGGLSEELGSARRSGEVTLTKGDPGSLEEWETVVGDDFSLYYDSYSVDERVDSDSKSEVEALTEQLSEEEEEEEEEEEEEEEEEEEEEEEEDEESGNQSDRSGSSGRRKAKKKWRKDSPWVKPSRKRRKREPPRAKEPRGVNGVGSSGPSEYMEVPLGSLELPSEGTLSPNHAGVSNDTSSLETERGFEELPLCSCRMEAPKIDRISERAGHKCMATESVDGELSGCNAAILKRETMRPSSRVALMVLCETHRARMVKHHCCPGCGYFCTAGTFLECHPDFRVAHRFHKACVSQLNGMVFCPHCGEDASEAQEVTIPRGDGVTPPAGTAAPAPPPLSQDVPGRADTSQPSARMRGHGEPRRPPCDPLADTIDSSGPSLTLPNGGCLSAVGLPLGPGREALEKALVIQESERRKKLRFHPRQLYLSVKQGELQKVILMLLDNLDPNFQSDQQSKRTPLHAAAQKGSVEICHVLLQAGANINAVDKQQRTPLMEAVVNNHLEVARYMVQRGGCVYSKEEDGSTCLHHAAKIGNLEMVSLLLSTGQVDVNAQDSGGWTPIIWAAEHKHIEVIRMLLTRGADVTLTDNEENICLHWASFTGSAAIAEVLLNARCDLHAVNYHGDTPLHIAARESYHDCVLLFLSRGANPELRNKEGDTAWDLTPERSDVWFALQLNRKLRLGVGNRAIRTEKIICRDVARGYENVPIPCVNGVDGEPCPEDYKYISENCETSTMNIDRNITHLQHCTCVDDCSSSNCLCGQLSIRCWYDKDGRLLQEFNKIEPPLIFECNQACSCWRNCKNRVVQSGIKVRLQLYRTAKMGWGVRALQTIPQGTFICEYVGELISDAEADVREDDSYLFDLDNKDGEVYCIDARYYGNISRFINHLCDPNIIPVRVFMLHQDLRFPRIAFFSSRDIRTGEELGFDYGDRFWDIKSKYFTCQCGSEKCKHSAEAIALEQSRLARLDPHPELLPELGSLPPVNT
T1 sequence (Q9H9B1 2-1298 limits assumed): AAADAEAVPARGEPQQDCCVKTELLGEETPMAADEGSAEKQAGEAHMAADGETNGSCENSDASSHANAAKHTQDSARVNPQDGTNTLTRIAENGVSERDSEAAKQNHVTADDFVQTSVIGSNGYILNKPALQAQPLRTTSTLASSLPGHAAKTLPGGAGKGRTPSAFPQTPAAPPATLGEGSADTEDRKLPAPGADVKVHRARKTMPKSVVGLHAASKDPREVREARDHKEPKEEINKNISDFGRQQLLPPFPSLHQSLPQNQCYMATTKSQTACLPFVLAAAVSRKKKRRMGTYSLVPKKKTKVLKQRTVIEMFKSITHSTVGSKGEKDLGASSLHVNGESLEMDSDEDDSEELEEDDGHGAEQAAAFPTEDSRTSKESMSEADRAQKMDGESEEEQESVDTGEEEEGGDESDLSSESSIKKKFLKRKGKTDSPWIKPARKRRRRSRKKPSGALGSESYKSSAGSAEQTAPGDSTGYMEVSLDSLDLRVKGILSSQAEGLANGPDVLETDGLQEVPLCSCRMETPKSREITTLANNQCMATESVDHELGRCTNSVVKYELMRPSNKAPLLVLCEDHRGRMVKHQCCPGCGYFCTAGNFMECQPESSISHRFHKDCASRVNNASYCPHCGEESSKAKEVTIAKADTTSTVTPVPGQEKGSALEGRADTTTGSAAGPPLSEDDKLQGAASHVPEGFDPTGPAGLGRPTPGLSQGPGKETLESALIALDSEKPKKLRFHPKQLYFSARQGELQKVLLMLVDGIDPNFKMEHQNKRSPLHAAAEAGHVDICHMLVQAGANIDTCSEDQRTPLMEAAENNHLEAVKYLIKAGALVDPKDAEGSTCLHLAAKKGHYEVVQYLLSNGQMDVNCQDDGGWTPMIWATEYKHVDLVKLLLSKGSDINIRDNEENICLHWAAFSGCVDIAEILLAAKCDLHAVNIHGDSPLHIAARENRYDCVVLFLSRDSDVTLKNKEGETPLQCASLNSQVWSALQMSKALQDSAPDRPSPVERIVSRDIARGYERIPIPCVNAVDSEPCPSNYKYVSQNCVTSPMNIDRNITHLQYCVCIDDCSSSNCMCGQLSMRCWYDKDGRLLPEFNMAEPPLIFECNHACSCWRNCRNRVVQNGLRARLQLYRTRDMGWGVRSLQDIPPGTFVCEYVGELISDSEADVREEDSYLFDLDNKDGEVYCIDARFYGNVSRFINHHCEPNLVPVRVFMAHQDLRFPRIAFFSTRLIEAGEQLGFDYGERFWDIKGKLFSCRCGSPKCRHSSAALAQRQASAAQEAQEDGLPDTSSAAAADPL


Legend:
[1] = test system: 3×MBT domain of L3MBTL1; experiment: Triple SILAC pull-down, 3xMBT/3xMBTD355N ratio (cytoplasmic, nuclear and chromatin fractions of 293T cells); assay type: binding, human; conditions: SILAC ratio 3xMBT vs 3xMBTD355N pull-down, 293T cells, all values in log base 2; for 3xMBT/D355N UNC Heavy: experiment with UNC0638 in heavy SILAC media; for 3xMBT/D355N UNC Light: experiment with UNC0638 in light SILAC media;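 as to all read-outs here: proteins quantified with MaxQuant, requiring at least two unique peptides and quantification in both label directions, normalized to the mean of proteins from a digested loading control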
[2] = target: T1, G9a and GLP; experiment: Triple SILAC pull-down after UNC0638 treatment of 293T cells, DMSO/UNC0638 ratio of protein captured by 3×MBT; assay type: cell-based; parameters: endogenous in cells; host or cells: HEK 293T; conditions: all values in log base 2; for Relative to UNC0638 UNC Heavy / Relative to UNC0638 UNC Light: SILAC ratio DMSO relative to UNC0638, pull-down with 3xMBT; for Relative to UNC0638 UNC Heavy: UNC0638 in heavy SILAC media; for Relative to UNC0638 UNC Light: UNC0638 in light SILAC media; for Relative to UNC0638 Average: average of UNC Light and UNC Heavy experiments;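 as to all read-outs here: mass spectrometry (Q-Exactive) SILAC quantitation, DMSO/UNC0638 ratio computed after subtracting 3×MBTD355N mutant pull-down background, only proteins with at least twofold 3×MBT over mutant signal considered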

Row | Relative to UNC0638 UNC Heavy [2] [log base 2] | Relative to UNC0638 UNC Light [2] [log base 2] | Relative to UNC0638 Average [2] [log base 2] | Molecule | 3xMBT/D355N UNC Heavy [1] [log base 2] | 3xMBT/D355N UNC Light [1] [log base 2]
1 | 0.14 | −0.38 | −0.12 | BAZ1B (protein, UniProt Q9UIG0 1-1483, looked up) Tyrosine-protein kinase BAZ1B: MAPLLGRKPFPLVKPLPGEEPLFTIPHTQEAFRTREEYEARLERYSERIWTCKSTGSSQLTHKEAWEEEQEVAELLKEEFPAWYEKLVLEMVHHNTASLEKLVDTAWLEIMTKYAVGEECDFEVGKEKMLKVKIVKIHPLEKVDEEATEKKSDGACDSPSSDKENSSQIAQDHQKKETVVKEDEGRRESINDRARRSPRKLPTSLKKGERKWAPPKFLPHKYDVKLQNEDKIISNVPADSLIRTERPPNKEIVRYFIRHNALRAGTGENAPWVVEDELVKKYSLPSKFSDFLLDPYKYMTLNPSTKRKNTGSPDRKPSKKSKTDNSSLSSPLNPKLWCHVHLKKSLSGSPLKVKNSKNSKSPEEHLEEMMKMMSPNKLHTNFHIPKKGPPAKKPGKHSDKPLKAKGRSKGILNGQKSTGNSKSPKKGLKTPKTKMKQMTLLDMAKGTQKMTRAPRNSGGTPRTSSKPHKHLPPAALHLIAYYKENKDREDKRSALSCVISKTARLLSSEDRARLPEELRSLVQKRYELLEHKKRWASMSEEQRKEYLKKKREELKKKLKEKAKERREKEMLERLEKQKRYEDQELTGKNLPAFRLVDTPEGLPNTLFGDVAMVVEFLSCYSGLLLPDAQYPITAVSLMEALSADKGGFLYLNRVLVILLQTLLQDEIAEDYGELGMKLSEIPLTLHSVSELVRLCLRRSDVQEESEGSDTDDNKDSAAFEDNEVQDEFLEKLETSEFFELTSEEKLQILTALCHRILMTYSVQDHMETRQQMSAELWKERLAVLKEENDKKRAEKQKRKEMEAKNKENGKVENGLGKTDRKKEIVKFEPQVDTEAEDMISAVKSRRLLAIQAKKEREIQEREMKVKLERQAEEERIRKHKAAAEKAFQEGIAKAKLVMRRTPIGTDRNHNRYWLFSDEVPGLFIEKGWVHDSIDYRFNHHCKDHTVSGDEDYCPRSKKANLGKNASMNTQHGTATEVAVETTTPKQGQNLWFLCDSQKELDELLNCLHPQGIRESQLKERLEKRYQDIIHSIHLARKPNLGLKSCDGNQELLNFLRSDLIEVATRLQKGGLGYVEETSEFEARVISLEKLKDFGECVIALQASVIKKFLQGFMAPKQKRRKLQSEDSAKTEEVDEEKKMVEEAKVASALEKWKTAIREAQTFSRMHVLLGMLDACIKWDMSAENARCKVCRKKGEDDKLILCDECNKAFHLFCLRPALYEVPDGEWQCPACQPATARRNSRGRNYTEESASEDSEDDESDEEEEEEEEEEEEEDYEVAGLRLRPRKTIRGKHSVIPPAARSGRRPGKKPHSTRRSQPKAPPVDDAEVDELVLQTKRSSRRQSLELQKCEEILHKIVKYRFSWPFREPVTRDEAEDYYDVITHPMDFQTVQNKCSCGSYRSVQEFLTDMKQVFTNAEVYNCRGSHVLSCMVKTEQCLVALLHKHLPGHPYVRRKRKKFPDRLAEDEGDSEPEAVGQSRGRRQKK | 1.37 | 0.19
2 | 0.71 | −0.94 | −0.12 | SHKBP1 (protein, UniProt Q8TBC3 2-707, looked up) SH3KBP1-binding protein 1: AAAATAAEGVPSRGPPGEVIHLNVGGKRFSTSRQTLTWIPDSFFSSLLSGRISTLKDETGAIFIDRDPTVFAPILNFLRTKELDPRGVHGSSLLHEAQFYGLTPLVRRLQLREELDRSSCGNVLFNGYLPPPVFPVKRRNRHSLVGPQQLGGRPAPVRRSNTMPPNLGNAGLLGRMLDEKTPPSPSGQPEEPGMVRLVCGHHNWIAVAYTQFLVCYRLKEASGWQLVFSSPRLDWPIERLALTARVHGGALGEHDKMVAAATGSEILLWALQAEGGGSEIGVFHLGVPVEALFFVGNQLIATSHTGRIGVWNAVTKHWQVQEVQPITSYDAAGSFLLLGCNNGSIYYVDVQKFPLRMKDNDLLVSELYRDPAEDGVTALSVYLTPKTSDSGNWIEIAYGTSSGGVRVIVQHPETVGSGPQLFQTFTVHRSPVTKIMLSEKHLISVCADNNHVRTWSVTRFRGMISTQPGSTPLASFKILALESADGHGGCSAGNDIGPYGERDDQQVFIQKVVPSASQLFVRLSSTGQRVCSVRSVDGSPTTAFTVLECEGSRRLGSRPRRYLLTGQANGSLAMWDLTTAMDGLGQAPAGGLTEQELMEQLEHCELAPPAPSAPSWGCLPSPSPRISLTSLHSASSNTSLSGHRGSPSPPQAEARRRGGGSFVERCQELVRSGPDLRRPPTPAPWPSSGLGTPLTPPKMKLNETSF | 2.90 | 2.73
3 |  | −0.49 | −0.49 | CTNND1 (protein, UniProt O60716 1-968, looked up) Catenin delta-1: MDDSEVESTASILASVKEQEAQFEKLTRALEEERRHVSAQLERVRVSPQDANPLMANGTLTRRHQNGRFVGDADLERQKFSDLKLNGPQDHSHLLYSTIPRMQEPGQIVETYTEEDPEGAMSVVSVETSDDGTTRRTETTVKKVVKTVTTRTVQPVAMGPDGLPVDASSVSNNYIQTLGRDFRKNGNGGPGPYVGQAGTATLPRNFHYPPDGYSRHYEDGYPGGSDNYGSLSRVTRIEERYRPSMEGYRAPSRQDVYGPQPQVRVGGSSVDLHRFHPEPYGLEDDQRSMGYDDLDYGMMSDYGTARRTGTPSDPRRRLRSYEDMIGEEVPSDQYYWAPLAQHERGSLASLDSLRKGGPPPPNWRQPELPEVIAMLGFRLDAVKSNAAAYLQHLCYRNDKVKTDVRKLKGIPVLVGLLDHPKKEVHLGACGALKNISFGRDQDNKIAIKNCDGVPALVRLLRKARDMDLTEVITGTLWNLSSHDSIKMEIVDHALHALTDEVIIPHSGWEREPNEDCKPRHIEWESVLTNTAGCLRNVSSERSEARRKLRECDGLVDALIFIVQAEIGQKDSDSKLVENCVCLLRNLSYQVHREIPQAERYQEAAPNVANNTGPHAASCFGAKKGKDEWFSRGKKPIEDPANDTVDFPKRTSPARGYELLFQPEVVRIYISLLKESKTPAILEASAGAIQNLCAGRWTYGRYIRSALRQEKALSAIADLLTNEHERVVKAASGALRNLAVDARNKELIGKHAIPNLVKNLPGGQQNSSWNFSEDTVISILNTINEVIAENLEAAKKLRETQGIEKLVLINKSGNRSEKEVRAAALVLQTIWGYKELRKPLEKEGWKKSDFQVNLNNASRSQSSHSYDDSTLPLIDRNQKSDKKPDREEIQMSNMGSNTKSLDNNYSTPNERGDHNRTLDRSGDLGDMEPLKGTTPLMQDEGQESLEEELDVLVLDDEGGQVSYPSMQKI | 0.67 | 2.07

— patent US20140274782A1, “AFFINITY REAGENTS AND METHODS FOR DETECTION, PURIFICATION, AND PROTEOMIC ANALYSIS OF METHYLATED PROTEINS” (The Board of Trustees of the Leland Stanford Junior …, priority 2013, published 2014)
